Our source for the protein stability index values is the supplement of paper PMC10567573.

The data set in a line: protein stability index of a GFP-peptide fusion (GPS, HEK-293T) (PSI 1-6); higher = more stable. Conditions: c terminus: native.
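Also: lentivirally expressed fusion library, cells FACS-sorted into six equal-sized GFP/DsRed ratio bins, PSI computed from sequencing read fractions per bin weighted by bin number.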

For the protein DGWIRVSSDNVADLHEKYSGSTPY [PSMB5 addY], for the setting “parent: NP_002788.1”, the protein stability index was found to be 3.43.

Take HSLRAVSTDPPHHDHHDEFCLMPY [BEX2 addY]: the protein stability index (parent: NP_116010.1) worked out at 3.52.

CQPISFSGFGAEDDDLGGLGLGPY [POLD2 addY]: under “parent: NP_006221.1”, the protein stability index was found to be 2.32.

As to LPALFTDLYSQEITAEEAREALPY [SNF8 addY], the protein stability index (parent: NP_009172.2) was found to be 4.33.

Regarding EQRNSRWNTVLRAVKAKTHHLEPY [TRPA1 addY], the protein stability index (parent: NP_015628.1) stood at 4.2.
